The source of these data is paper PMC3173086.

This assay addresses MppA (murein tripeptide-binding protein of E. coli), His tag cleaved (E. coli K-12) (UniProt P77348). Briefly: other fluorescence titration.
Chain of UniProt P77348 (P77348 23-537, tags left off): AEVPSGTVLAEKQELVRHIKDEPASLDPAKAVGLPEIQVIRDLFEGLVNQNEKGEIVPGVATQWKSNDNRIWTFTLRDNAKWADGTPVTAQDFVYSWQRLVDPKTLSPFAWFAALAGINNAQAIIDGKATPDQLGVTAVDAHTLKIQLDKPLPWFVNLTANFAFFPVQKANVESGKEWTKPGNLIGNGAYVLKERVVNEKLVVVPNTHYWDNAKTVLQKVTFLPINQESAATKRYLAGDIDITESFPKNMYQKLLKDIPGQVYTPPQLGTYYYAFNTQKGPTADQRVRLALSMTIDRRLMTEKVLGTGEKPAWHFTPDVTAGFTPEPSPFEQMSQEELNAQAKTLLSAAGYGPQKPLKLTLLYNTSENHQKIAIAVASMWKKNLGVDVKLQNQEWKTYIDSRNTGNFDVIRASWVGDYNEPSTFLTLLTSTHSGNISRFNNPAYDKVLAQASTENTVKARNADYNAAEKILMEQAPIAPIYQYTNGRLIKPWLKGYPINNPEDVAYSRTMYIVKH

Take L-Ala-γ-D-Glu-L-Lys (peptide): the Kd was found to be 130 µM.

The Kd is the equilibrium constant for the complex coming apart. A low value points to higher affinity.
